Like-named read-outs stand apart in the source and are kept apart here.
Key:
[1] = target: T1, hnRNPK KH3 (Homo sapiens, UniProt P61978 384-463); assay: ITC
[2] = target: T1, hnRNPK KH3; assay: ITC; remark: listed apart in the source

T1 sequence (P61978 384-463): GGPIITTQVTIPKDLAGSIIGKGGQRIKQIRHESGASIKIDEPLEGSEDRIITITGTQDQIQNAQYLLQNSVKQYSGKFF

## CUCCCGC (ssRNA) [heptamer RNA]
[1]
  Kd: 4.31 ± 0.68 µM
[2]
  Kd: 4.74 ± 1 µM

## CUAAAGC (ssRNA) [mutant heptamer RNA]
[1]
  binding result: no binding

From PMC10023864
